Each block holds one substance with its values, some of them ahead of it.
Columns and labels:
Experiment in all cases: SEC; Sephacryl S-400R in buffer C (20 mM Na-phosphate pH 7.4, 100 mM NaCl, 0.05% dodecyl beta-maltoside); absorbance at 280 nm; apparent molecular weight by comparison to globular protein standards; self-association, hexamer
[1] = biological target: AbSGR-h D34N mutant (Anaerolineae bacterium SM23_63)
[2] = biological target: AbSGR-h D62N mutant (Anaerolineae bacterium SM23_63)
[3] = biological target: AbSGR-h H32A mutant (Anaerolineae bacterium SM23_63)
[4] = biological target: AbSGR-h T36A mutant (Anaerolineae bacterium SM23_63)
[5] = biological target: Anaerolineae bacterium SM23_63 SGR homolog (AbSGR-h), wild-type (Anaerolineae bacterium SM23_63)

Substance: AbSGR-h D34N mutant (enzyme)
stoichiometry N [1]: 6

Substance: AbSGR-h H32A mutant (enzyme)
stoichiometry N [3]: 6

Substance: AbSGR-h T36A mutant (enzyme)
stoichiometry N [4]: 6

Now from value to substance:

stoichiometry N [2]: 6
Substance: AbSGR-h D62N mutant (enzyme)

stoichiometry N [5]: 6
Substance: Anaerolineae bacterium SM23_63 SGR homolog (AbSGR-h), wild-type (enzyme)

— article PMC8531759
